Results: patent US20140072613A1, “Compositions and Methods for Treating Cutaneous Scarring” (priority 2012, published 2014)

Legend:
Experiment in all cases: cell-based or functional assay
WNK3(h) (human) = WNK3(h) (human) (UniProt Q9BYP7)
EphB4(h) (human) = EphB4(h) (human) (UniProt P54760)
ALK(h) (human) = ALK(h) (human) (UniProt Q9UM73)
TrkB(h) (human) = TrkB(h) (human) (UniProt Q16620)
CDK5/p25(h) (human) = CDK5/p25(h) (human) (UniProt Q00535)
Tec(h)activated (human) = biological target: T1, Tec(h)activated (human) (UniProt P42680)
T1 sequence (looked up): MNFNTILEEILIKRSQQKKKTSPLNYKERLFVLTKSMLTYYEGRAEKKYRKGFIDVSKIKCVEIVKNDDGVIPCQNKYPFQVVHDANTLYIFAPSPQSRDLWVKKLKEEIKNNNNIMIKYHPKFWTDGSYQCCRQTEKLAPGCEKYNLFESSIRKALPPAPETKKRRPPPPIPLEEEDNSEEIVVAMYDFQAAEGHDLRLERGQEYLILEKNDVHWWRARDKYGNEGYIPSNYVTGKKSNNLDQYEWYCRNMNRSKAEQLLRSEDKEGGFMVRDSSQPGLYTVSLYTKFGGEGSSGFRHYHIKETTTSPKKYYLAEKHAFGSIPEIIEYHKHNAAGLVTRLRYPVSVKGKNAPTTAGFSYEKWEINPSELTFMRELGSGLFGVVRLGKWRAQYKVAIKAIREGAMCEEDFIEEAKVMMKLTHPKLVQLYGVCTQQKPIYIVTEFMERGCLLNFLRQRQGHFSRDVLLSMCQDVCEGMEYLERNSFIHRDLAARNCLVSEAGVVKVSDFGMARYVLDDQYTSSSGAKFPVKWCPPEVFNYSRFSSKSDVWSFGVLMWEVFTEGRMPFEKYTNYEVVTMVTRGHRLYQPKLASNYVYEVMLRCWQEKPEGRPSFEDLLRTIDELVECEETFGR

Flt4(h) (human) = Flt4(h) (human) (UniProt P35916)
Fer(h) (human) = Fer(h) (human) (UniProt P16591)
SIK(h) (human) = SIK(h) (human) (UniProt P57059)
DMPK(h) (human) = DMPK(h) (human) (UniProt Q09013)
Abl(T315I)(h) (human) = Abl(T315I)(h) (human) (UniProt P00519)
IKKα(h) (human) = biological target: T2, IKKα(h) (human) (UniProt O15111)
T2 sequence (looked up): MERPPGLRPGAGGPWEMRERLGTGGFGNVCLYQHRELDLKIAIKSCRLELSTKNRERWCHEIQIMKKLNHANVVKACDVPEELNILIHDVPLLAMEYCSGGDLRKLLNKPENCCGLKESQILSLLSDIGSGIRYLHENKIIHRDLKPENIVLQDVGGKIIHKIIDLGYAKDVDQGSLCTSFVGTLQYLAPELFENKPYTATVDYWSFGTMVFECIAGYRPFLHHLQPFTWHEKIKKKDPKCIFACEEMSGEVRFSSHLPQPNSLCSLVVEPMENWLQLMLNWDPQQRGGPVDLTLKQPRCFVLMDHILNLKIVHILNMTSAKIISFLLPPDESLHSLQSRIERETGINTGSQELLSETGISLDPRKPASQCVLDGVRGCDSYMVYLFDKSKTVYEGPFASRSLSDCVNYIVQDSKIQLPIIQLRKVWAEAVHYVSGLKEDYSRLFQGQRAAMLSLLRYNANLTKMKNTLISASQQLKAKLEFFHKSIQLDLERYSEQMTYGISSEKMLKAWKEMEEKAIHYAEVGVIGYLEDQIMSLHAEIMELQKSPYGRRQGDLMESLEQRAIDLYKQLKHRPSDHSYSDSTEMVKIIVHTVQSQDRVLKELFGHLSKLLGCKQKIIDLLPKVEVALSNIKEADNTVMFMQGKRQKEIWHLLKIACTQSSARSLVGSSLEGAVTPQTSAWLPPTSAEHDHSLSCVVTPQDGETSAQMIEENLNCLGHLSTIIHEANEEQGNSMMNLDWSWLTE

EGFR(L858R)(h) (human) = EGFR(L858R)(h) (human) (UniProt P00533)
Flt1(h) (human) = biological target: T3, Flt1(h) (human) (UniProt P17948)
T3 sequence (looked up): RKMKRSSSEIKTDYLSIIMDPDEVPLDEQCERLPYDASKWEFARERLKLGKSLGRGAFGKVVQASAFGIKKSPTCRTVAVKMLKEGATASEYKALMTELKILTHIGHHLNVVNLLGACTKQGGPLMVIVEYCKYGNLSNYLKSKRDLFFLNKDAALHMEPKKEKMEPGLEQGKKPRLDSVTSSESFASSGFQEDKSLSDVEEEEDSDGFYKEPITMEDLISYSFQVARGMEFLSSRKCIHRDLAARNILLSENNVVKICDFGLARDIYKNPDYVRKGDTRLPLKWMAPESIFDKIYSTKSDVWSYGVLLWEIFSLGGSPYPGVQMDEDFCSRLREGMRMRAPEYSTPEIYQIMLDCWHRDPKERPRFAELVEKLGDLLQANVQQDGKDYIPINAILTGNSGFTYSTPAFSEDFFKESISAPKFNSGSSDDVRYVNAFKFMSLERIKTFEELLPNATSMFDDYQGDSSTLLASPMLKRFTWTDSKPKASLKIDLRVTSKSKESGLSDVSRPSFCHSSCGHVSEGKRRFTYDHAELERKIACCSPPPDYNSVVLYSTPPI

ACK1(h) (human) = ACK1(h) (human) (UniProt Q07912)
NEK2(h) (human) = biological target: T4, NEK2(h) (human) (UniProt P51955)
T4 sequence (looked up): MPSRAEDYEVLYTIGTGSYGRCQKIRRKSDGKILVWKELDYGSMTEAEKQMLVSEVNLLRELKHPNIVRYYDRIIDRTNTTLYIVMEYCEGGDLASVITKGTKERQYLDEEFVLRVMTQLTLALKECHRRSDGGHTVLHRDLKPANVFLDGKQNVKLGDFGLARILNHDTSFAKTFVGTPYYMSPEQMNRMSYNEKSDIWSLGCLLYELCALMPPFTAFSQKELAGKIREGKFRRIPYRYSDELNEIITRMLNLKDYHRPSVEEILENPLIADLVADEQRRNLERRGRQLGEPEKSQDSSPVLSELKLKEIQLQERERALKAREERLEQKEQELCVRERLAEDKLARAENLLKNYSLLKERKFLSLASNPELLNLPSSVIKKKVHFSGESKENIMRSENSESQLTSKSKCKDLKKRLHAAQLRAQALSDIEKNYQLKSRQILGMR

TrkB(h) (human), sequence (Q16620 455-822 limits assumed): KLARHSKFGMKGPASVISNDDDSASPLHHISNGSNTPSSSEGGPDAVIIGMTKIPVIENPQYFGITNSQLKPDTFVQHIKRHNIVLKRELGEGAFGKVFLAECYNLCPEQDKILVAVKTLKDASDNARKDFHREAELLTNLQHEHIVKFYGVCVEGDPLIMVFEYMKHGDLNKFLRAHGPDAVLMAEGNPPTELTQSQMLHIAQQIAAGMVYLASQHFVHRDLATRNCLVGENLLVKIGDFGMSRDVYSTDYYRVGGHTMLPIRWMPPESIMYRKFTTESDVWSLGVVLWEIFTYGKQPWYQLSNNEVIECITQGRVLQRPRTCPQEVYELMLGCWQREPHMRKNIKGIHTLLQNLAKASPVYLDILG
Fer(h) (human), sequence (P16591 541-822 limits assumed): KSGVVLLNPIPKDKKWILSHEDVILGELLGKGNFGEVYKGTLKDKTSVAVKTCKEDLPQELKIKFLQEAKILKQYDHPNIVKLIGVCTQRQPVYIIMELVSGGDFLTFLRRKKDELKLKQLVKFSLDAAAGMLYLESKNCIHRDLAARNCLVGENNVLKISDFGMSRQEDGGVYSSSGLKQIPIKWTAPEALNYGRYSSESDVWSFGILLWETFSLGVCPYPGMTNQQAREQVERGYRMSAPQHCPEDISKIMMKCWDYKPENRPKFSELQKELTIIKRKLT
DMPK(h) (human), sequence (Q09013 whole entry): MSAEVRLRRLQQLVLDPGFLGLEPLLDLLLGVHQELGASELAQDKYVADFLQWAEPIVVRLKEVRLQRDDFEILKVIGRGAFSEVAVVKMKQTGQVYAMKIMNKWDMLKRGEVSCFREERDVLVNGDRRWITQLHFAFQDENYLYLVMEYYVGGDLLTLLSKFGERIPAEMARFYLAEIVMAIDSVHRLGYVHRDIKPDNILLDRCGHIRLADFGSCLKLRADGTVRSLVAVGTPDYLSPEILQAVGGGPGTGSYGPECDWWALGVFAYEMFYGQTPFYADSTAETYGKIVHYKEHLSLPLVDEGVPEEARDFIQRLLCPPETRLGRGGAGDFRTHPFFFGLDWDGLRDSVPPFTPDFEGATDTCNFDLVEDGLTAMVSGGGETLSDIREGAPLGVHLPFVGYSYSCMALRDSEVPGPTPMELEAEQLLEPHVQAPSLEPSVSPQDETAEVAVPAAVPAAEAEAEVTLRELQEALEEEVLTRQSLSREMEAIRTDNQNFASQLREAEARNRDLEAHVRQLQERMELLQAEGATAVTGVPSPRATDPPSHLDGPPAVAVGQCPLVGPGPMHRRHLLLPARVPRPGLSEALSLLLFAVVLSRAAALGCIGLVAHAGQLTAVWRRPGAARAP
SIK(h) (human), sequence (P57059 whole entry): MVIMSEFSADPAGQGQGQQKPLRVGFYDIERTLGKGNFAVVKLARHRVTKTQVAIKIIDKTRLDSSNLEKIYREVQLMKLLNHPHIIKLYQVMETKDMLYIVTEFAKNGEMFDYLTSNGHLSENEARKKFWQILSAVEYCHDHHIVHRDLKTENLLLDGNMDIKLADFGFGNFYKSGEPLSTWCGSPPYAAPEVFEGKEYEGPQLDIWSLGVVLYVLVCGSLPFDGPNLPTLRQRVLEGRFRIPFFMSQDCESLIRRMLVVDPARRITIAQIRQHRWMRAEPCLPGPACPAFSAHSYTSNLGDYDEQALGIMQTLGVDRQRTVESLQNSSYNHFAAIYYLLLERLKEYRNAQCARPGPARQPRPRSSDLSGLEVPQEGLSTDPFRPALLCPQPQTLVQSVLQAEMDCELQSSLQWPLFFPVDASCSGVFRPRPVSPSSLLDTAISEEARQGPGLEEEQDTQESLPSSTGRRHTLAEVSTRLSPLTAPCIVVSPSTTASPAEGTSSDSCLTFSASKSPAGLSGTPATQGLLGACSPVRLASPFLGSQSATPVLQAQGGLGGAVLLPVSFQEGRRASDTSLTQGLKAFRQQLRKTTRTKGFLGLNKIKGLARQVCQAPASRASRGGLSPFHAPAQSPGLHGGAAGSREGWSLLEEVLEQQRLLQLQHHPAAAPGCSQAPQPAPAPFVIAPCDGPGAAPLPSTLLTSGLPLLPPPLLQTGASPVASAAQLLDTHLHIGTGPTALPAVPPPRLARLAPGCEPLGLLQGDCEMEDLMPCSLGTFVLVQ
Flt4(h) (human), sequence (P35916 800-1363 limits assumed): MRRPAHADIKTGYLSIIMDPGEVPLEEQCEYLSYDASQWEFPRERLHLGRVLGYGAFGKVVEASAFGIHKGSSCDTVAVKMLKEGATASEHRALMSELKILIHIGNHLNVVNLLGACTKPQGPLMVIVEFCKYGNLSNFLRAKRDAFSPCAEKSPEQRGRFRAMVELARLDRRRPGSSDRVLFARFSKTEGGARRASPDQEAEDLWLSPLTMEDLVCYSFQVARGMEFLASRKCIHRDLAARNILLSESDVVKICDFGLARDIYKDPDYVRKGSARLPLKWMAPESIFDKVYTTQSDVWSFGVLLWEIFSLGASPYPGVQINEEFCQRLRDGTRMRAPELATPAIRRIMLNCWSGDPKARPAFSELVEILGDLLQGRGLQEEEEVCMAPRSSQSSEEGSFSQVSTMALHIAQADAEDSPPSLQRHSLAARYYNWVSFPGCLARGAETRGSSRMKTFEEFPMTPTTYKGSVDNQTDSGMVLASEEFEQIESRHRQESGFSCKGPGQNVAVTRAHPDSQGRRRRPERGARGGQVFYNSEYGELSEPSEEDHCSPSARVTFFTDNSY
ACK1(h) (human), sequence (Q07912 110-476 limits assumed): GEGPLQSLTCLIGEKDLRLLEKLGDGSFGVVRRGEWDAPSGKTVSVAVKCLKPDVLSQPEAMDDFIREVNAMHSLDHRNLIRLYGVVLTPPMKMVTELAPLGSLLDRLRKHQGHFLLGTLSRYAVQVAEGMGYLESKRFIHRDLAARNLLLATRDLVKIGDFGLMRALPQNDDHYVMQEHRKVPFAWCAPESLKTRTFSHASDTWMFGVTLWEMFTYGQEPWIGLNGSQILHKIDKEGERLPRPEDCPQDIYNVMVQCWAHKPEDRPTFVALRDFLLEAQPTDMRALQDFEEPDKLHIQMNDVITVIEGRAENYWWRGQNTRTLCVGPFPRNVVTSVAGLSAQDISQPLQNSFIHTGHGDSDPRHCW
ALK(h) (human), sequence (Q9UM73 1058-1620 limits assumed): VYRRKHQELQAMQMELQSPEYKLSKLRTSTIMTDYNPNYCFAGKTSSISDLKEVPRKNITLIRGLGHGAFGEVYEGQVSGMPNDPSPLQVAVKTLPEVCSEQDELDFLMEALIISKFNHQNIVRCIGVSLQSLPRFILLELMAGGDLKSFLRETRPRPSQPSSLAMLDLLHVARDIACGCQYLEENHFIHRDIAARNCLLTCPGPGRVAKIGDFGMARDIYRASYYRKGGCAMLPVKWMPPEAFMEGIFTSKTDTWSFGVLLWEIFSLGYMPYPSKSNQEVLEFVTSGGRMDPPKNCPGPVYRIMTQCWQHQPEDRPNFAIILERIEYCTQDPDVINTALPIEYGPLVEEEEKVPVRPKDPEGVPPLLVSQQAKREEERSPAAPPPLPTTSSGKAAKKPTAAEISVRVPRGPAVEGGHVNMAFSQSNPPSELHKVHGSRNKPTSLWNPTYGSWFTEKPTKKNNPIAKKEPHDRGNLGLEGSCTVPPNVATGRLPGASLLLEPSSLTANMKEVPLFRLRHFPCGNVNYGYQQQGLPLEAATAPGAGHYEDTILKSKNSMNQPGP
Abl(T315I)(h) (human), sequence (P00519 27-1130 T315I limits assumed): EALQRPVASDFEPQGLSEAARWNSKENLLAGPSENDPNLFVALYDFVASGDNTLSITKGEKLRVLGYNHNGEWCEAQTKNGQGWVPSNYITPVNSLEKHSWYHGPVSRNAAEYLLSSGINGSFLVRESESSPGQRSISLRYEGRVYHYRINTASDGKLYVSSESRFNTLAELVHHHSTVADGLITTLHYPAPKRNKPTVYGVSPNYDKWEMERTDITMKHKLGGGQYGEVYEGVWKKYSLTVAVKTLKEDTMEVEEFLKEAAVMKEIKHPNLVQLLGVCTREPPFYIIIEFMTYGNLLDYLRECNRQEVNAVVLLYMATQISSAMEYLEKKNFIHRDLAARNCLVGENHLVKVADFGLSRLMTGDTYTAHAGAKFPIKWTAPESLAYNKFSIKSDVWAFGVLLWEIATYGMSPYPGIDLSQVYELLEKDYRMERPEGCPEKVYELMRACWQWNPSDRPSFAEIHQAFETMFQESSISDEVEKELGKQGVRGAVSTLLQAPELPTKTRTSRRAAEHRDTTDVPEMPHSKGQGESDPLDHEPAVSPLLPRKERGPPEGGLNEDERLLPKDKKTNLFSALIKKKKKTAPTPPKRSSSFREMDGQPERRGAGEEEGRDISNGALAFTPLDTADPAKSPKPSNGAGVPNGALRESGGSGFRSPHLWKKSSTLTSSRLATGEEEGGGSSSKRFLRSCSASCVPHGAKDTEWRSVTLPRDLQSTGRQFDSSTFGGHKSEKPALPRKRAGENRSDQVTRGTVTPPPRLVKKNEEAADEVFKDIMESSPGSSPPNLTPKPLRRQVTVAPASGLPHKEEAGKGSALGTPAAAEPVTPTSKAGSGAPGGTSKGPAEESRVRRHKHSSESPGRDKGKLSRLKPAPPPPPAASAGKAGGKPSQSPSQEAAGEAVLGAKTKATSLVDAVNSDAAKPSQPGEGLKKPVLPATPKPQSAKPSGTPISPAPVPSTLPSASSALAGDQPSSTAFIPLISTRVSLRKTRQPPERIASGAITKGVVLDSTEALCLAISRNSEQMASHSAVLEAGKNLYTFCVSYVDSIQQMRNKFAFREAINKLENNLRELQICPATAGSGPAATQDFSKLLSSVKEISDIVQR

Question: For MMI-0500 (peptide), which % activity, 100 µM (WNK3(h) (human)) is on record?
Answer: 9%

Question: What about the % activity, 100 µM (EphB4(h) (human)) of the same substance?
Answer: 38%

Question: What about the % activity, 100 µM (ALK(h) (human)) of the same substance?
Answer: 12%

Question: And the % activity, 100 µM (TrkB(h) (human))?
Answer: 12%

Question: And the inhibition of kinase activity at 100 µM (TrkB(h) (human))?
Answer: > 65%

Question: And the % activity, 100 µM (CDK5/p25(h) (human))?
Answer: 66%

Question: And the % activity, 100 µM (Tec(h)activated (human))?
Answer: 33%

Question: And the % activity, 100 µM (Flt4(h) (human))?
Answer: 73%

Question: What about the % activity, 100 µM (Fer(h) (human)) of the same substance?
Answer: 196%

Question: What about the % activity, 100 µM (SIK(h) (human)) of the same substance?
Answer: 40%

Question: And the % activity, 100 µM (DMPK(h) (human))?
Answer: 12%

Question: What about the % activity, 100 µM (Abl(T315I)(h) (human)) of the same substance?
Answer: 16%

Question: What about the % activity, 100 µM (IKKα(h) (human)) of the same substance?
Answer: 50%

Question: What about the % activity, 100 µM (EGFR(L858R)(h) (human)) of the same substance?
Answer: 26%

Question: And the % activity, 100 µM (Flt1(h) (human))?
Answer: 27%

Question: What about the % activity, 100 µM (ACK1(h) (human)) of the same substance?
Answer: 64%

Question: And the % activity, 100 µM (NEK2(h) (human))?
Answer: 0%
